In patent US20190161551A1 (Regeneron, published 2019):

Assays:
[1] = target: T1, rat TrkB extracellular domain expressed with a C-terminal myc-myc-hexahistidine tag (rat, UniProt Q63604 32-429); assay: SPR, mAb captured (anti-mFc), 25C; 25 C; rTrkB.mmH
T1 construct: also called rTrkB.mmH; rTRKB.mmH
Description: (§1) All binding studies were performed in 10 mM Hepes pH 7.4, 150 mM NaCl, 3 mM EDTA, and 0.05% v/v Surfactant Tween-20 (HBS-ET running buffer) at 25° C. and 37° C. […] Binding studies were performed on following TrkB reagents; human TrkB extracellular domain expressed with a C-terminal myc-myc-hexahistidine tag (hTRKB.mmH; SEQ ID NO: 76; Accession number NP_001018074.1), mouse TrkB extracellular domain expressed with a C-terminal myc-myc-hexahistidine tag (mTRKB.mmH; SEQ ID NO: 79; Accession number NP_001020245), rat TrkB extracellular domain expressed with a C-terminal myc-myc-hexahistidine tag (rTRKB.mmH; SEQ ID NO: 84; Accession number NP_036863.1), and human TrkB extracellular domain expressed with a C-terminal mouse IgG2a Fc tag (hTrkB-mFc; SEQ ID NO: 77; Accession number NP_001018074.1). […] Kinetic association (kₐ) and dissociation (kd) rate constants were determined by fitting the real-time binding sensorgrams to a 1:1 binding model with mass transport limitation using Scrubber 2.0c curve-fitting software. Binding dissociation equilibrium constants (KD) and dissociative half-lives (t½) were calculated from the kinetic rate constants as: […]

[2] = target: T2, mouse TrkB extracellular domain expressed with a C-terminal myc-myc-hexahistidine tag (mouse, UniProt P15209 32-429); assay: SPR, mAb captured (anti-mFc), 37C
T2 construct: also called mTrkB.mmH; mTRKB.mmH
T2 sequence (P15209 other isoform, or with tags, fused parts or gaps): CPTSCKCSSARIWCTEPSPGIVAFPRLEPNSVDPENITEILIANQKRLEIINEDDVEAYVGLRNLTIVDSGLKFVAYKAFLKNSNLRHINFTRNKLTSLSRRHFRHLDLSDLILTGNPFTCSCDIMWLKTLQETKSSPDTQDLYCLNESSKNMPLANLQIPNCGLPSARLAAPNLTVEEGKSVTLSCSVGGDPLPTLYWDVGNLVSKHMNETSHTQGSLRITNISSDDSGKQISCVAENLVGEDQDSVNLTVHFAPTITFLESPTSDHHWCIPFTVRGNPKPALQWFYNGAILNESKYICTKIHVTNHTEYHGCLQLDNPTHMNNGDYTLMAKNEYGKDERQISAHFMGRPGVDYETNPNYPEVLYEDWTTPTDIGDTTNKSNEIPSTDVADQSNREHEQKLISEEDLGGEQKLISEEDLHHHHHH
Description: as §1, with “Equilibrium dissociation constants (KD values) for TrkB binding to purified anti-TrkB monoclonal antibodies were determined using a real-time surface plasmon resonance biosensor using a Biacore 4000 instrument. All” for “All”

[3] = target: T3, human TrkB extracellular domain expressed with a C-terminal myc-myc-hexahistidine tag (human, UniProt Q16620 32-430); assay: SPR, mAb captured (anti-mFc), 37C
T3 construct: also called hTrkB.mmH; hTRKB.mmH
T3 sequence (Q16620 other isoform, or with tags, fused parts or gaps): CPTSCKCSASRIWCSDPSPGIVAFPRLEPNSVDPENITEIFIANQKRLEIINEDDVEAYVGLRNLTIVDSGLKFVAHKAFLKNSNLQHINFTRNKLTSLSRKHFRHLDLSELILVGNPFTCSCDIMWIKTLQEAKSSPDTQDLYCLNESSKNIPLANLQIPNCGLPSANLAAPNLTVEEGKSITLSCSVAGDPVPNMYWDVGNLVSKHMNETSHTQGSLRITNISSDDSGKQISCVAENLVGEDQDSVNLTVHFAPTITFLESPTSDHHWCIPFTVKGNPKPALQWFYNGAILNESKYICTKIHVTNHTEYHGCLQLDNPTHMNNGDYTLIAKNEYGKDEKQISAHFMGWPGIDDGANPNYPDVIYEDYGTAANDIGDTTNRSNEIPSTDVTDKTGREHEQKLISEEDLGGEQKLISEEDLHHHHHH
Description: as §1, with “Equilibrium dissociation constants (KD values) for TrkB binding to purified anti-TrkB monoclonal antibodies were determined using a real-time surface plasmon resonance biosensor using a Biacore 4000 instrument. All” for “All”

[4] = target: T1, rat TrkB extracellular domain expressed …; assay: SPR, mAb captured (anti-mFc), 37C
Description: as §1, with “Equilibrium dissociation constants (KD values) for TrkB binding to purified anti-TrkB monoclonal antibodies were determined using a real-time surface plasmon resonance biosensor using a Biacore 4000 instrument. All” for “All”

[5] = target: T4, human TrkB extracellular domain expressed with a C-terminal mouse IgG2a Fc tag (human); assay: SPR, mAb captured (anti-mFc), 37C
T4 construct: also called hTrkB-mFc; hTrkB.mFc
T4 sequence (chain, as listed by the source limits assumed): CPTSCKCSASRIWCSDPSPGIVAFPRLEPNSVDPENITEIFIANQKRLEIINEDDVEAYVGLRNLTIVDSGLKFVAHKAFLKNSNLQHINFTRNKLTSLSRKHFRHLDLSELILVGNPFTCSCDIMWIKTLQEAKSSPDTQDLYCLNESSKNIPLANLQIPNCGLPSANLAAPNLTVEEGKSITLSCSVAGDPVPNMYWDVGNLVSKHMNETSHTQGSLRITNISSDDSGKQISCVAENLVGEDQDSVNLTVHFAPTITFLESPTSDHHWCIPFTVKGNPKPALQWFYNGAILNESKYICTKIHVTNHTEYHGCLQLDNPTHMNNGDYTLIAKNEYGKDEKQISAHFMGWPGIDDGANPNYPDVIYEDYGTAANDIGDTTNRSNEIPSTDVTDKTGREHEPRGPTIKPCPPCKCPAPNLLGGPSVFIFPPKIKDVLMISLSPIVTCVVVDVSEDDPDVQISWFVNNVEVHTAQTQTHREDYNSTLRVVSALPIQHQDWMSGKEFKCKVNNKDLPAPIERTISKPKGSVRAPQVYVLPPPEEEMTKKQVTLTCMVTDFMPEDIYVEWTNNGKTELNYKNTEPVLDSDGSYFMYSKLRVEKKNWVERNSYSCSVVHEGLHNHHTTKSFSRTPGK
Description: as §1, with “Equilibrium dissociation constants (KD values) for TrkB binding to purified anti-TrkB monoclonal antibodies were determined using a real-time surface plasmon resonance biosensor using a Biacore 4000 instrument. All” for “All”

[6] = target: T2, mouse TrkB extracellular domain …; assay: SPR, mAb captured (anti-mFc), 25C
Description: as §1, with “Equilibrium dissociation constants (KD values) for TrkB binding to purified anti-TrkB monoclonal antibodies were determined using a real-time surface plasmon resonance biosensor using a Biacore 4000 instrument. All” for “All”

[7] = target: T3, human TrkB extracellular domain …; assay: SPR, mAb captured (anti-mFc), 25C
Description: as §1, with “Equilibrium dissociation constants (KD values) for TrkB binding to purified anti-TrkB monoclonal antibodies were determined using a real-time surface plasmon resonance biosensor using a Biacore 4000 instrument. All” for “All”

[8] = target: T1, rat TrkB extracellular domain expressed …; assay: SPR, mAb captured (anti-mFc), 25C
Description: as §1, with “Equilibrium dissociation constants (KD values) for TrkB binding to purified anti-TrkB monoclonal antibodies were determined using a real-time surface plasmon resonance biosensor using a Biacore 4000 instrument. All” for “All”

[9] = target: T4, human TrkB extracellular domain …; assay: SPR, mAb captured (anti-mFc), 25C
Description: as §1, with “Equilibrium dissociation constants (KD values) for TrkB binding to purified anti-TrkB monoclonal antibodies were determined using a real-time surface plasmon resonance biosensor using a Biacore 4000 instrument. All” for “All”

T1 sequence (Q63604 other isoform, or with tags, fused parts or gaps): as the sequence (P15209 other isoform, or with tags, fused parts or gaps) above, with T3M, S9T, A10T, V32I, R63K, S84G, M153T, L185I, S394T counted along it

B1: H1M8037C (antibody, mouse IgG1, kappa, V domains shown)
VH: QVQLVQSGAEVKKPGASVKVSCKASGYTFTNYDIIWVRQAPGQGLEWMGYINPYNDGTKYNEKFKGRVTMTRDTSTSTVYMELSSLRSEDTAVYYCARLLKYRRFRYYAIDYWGQGTTVTVSS
VL: DIQMTQSPSSLSASVGDRVTITCRTSENVYSNLAWYQQKPGKAPKLLIYAASNLQSGVPSRFSGSGSGTDYTFTISSLQPEDIATYYCQHFWGSPFTFGQGTKLEIKR
notes: captured by anti-mFc in SPR; also called Comparator; comparator anti-TrkB monoclonal antibody
Kd [1]: 31.8 nM | Kd [2]: 94.1 nM | koff [2]: 0.00696 s⁻¹ | kon [2]: 74000 M⁻¹ s⁻¹ | t½ [2]: 1.7 min | Kd [3]: 135 nM | koff [3]: 0.00831 s⁻¹ | kon [3]: 61300 M⁻¹ s⁻¹ | t½ [3]: 1.4 min | Kd [4]: 87.5 nM | koff [4]: 0.00694 s⁻¹ | kon [4]: 79300 M⁻¹ s⁻¹ | t½ [4]: 1.7 min | Kd [5]: 1.24 nM | koff [5]: 0.000292 s⁻¹ | kon [5]: 235000 M⁻¹ s⁻¹ | t½ [5]: 40 min | Kd [6]: 40.8 nM | koff [6]: 0.00168 s⁻¹ | kon [6]: 41200 M⁻¹ s⁻¹ | t½ [6]: 7 min | Kd [7]: 41.3 nM | koff [7]: 0.00192 s⁻¹ | kon [7]: 46500 M⁻¹ s⁻¹ | t½ [7]: 6 min | Kd [8]: 31 nM | koff [8]: 0.0016 s⁻¹ | kon [8]: 51600 M⁻¹ s⁻¹ | t½ [8]: 7 min | Kd [9]: 1.09 nM | koff [9]: 9.55e-05 s⁻¹ | kon [9]: 88000 M⁻¹ s⁻¹ | t½ [9]: 121 min
